Biological target: HA-tagged C-terminal region of CaV1.3α (aa 1509–2203) (rat) (UniProt P27732)
Sequence of UniProt P27732 (P27732 1509-2203): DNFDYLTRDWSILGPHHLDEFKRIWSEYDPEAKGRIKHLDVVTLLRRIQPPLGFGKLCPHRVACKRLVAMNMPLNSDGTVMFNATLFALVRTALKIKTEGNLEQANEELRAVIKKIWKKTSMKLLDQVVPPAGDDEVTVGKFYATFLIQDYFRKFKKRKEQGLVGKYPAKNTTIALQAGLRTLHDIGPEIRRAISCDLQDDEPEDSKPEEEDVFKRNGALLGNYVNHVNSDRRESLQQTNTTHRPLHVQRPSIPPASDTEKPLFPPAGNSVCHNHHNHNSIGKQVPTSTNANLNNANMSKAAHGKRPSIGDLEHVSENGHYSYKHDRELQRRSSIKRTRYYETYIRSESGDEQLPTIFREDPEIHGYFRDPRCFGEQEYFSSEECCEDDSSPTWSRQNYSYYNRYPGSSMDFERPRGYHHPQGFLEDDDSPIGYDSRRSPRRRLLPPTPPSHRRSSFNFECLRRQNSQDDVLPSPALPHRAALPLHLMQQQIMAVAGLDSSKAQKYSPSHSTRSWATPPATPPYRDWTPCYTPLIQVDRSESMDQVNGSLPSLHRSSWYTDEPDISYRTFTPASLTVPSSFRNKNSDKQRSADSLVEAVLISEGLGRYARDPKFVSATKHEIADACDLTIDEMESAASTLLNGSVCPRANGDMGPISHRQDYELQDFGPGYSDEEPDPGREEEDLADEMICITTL

- shift of the voltage-dependence of CaV1.3 channel activation in HEK293/SK3-1 cells co-expressing RIM2α: 3 mV
Substance: full-length untagged RIM2α (from UniProt Q9EQZ7-1 1-1530) (natural protein)

Reference: paper PMC5462952
